Target: T1, PSF, full-length, fused to the GAL4 DNA-binding domain (pFN11A-PSF) (human, UniProt P23246 1-707)
T1 construct: PTB-associated splicing factor (PSF), human, full-length cDNA (GenBank BC051192), 707 amino acids; CheckMate/Flexi Vector Mammalian Two-Hybrid System (Promega), vector pFN11A; also called Gal4-PSF; source: CV-1 cells, transiently transfected, mammalian two-hybrid fusion
T1 sequence (looked up): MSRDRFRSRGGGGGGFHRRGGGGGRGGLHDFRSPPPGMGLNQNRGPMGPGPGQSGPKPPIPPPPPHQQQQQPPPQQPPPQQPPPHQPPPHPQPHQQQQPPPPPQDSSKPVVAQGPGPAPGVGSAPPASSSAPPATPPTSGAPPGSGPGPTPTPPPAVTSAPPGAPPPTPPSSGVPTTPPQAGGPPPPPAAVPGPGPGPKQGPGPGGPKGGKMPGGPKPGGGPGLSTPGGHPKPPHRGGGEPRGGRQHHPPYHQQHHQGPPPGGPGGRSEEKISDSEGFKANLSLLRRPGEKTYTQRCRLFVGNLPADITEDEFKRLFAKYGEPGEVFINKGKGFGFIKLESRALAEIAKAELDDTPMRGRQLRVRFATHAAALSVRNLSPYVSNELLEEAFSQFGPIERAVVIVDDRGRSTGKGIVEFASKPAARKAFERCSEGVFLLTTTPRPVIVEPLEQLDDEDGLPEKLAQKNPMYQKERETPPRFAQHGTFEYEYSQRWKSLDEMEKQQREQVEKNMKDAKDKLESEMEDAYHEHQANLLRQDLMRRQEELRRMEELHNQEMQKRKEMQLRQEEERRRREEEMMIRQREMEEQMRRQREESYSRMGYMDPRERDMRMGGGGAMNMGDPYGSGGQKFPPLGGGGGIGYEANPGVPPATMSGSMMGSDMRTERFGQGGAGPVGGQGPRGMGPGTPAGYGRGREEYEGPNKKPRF
Assay: two-hybrid; mammalian two-hybrid in CV-1 cells: GAL4 DNA-binding domain-PSF (pFN11A) and VP16-PPARγ1 (pFN10A), GAL4-UAS luciferase reporter; also with rosiglitazone 0.1–10 µM, which did not affect the interaction
Conditions: partners not purified

fold induction of GAL4 promoter-driven luciferase over empty vectors: 3 fold
B1: PPARγ1, full-length, fused to the VP16 activation domain (pFN10A-PPARγ1) (natural protein, UniProt P37231-2 1-477, looked up)
chain: MTMVDTEMPFWPTNFGISSVDLSVMEDHSHSFDIKPFTTVDFSSISTPHYEDIPFTRTDPVVADYKYDLKLQEYQSAIKVEPASPPYYSEKTQLYNKPHEEPSNSLMAIECRVCGDKASGFHYGVHACEGCKGFFRRTIRLKLIYDRCDLNCRIHKKSRNKCQYCRFQKCLAVGMSHNAIRFGRMPQAEKEKLLAEISSDIDQLNPESADLRALAKHLYDSYIKSFPLTKAKARAILTGKTTDKSPFVIYDMNSLMMGEDKIKFKHITPLQEQSKEVAIRIFQGCQFRSVEAVQEITEYAKSIPGFVNLDLNDQVTLLKYGVHEIIYTMLASLMNKDGVLISEGQGFMTREFLKSLRKPFGDFMEPKFEFAVKFNALELDDSDLAIFIAVIILSGDRPGLLNVKPIEDIQDNLLQALELQLKLNHPESSQLFAKLLQKMTDLRQIVTEHVQLLQVIKKTETDMSLHPLLQEIYKDLY
notes: CheckMate/Flexi Vector Mammalian Two-Hybrid System (Promega), vector pFN10A; also called VP16-PPARγ; VP-16-PPARγ1; source: CV-1 cells, transiently transfected, mammalian two-hybrid fusion

Reference: publication PMC3596311, “PTB-Associated Splicing Factor (PSF) Is a PPARγ-Binding Protein and Growth Regulator of Colon Cancer Cells” (PLoS ONE, 2013)
